{
  "source": "patent US11485769B2",
  "about": "“Peptides and combination of peptides for use in immunotherapy and methods for generating scaffolds for the use against pancreatic cancer and other cancers” (Immatics Biotechnologies GmbH, priority 2015, dated 2022)",
  "data": [
    {"target": "HLA-A*02:01 (Homo sapiens, UniProt P04439, D140Y/D185E/D98H/E176V/E277Q/G131W/G231S/I119V/I121R/I166T/I218V/L300P/L318F/N151K/N90K/P208A/P217A/Q86G/Q94H/R138H/R169H/T345S)", "assay": "MHC binding assay (UV-ligand exchange, beta2m ELISA, peptide exchange yield)", "details": "binding to HLA-A*02:01 ranged by peptide exchange yield, β2m ELISA", "source_text": "Candidate peptides for T cell based therapies according to the present invention were further tested for their MHC binding capacity (affinity). The individual peptide-MHC complexes were produced by UV-ligand exchange, where a UV-sensitive peptide is cleaved upon UV-irradiation, and exchanged with the peptide of interest as analyzed. Only peptide candidates that can effectively bind and stabilize the peptide-receptive MHC molecules prevent dissociation of the MHC complexes. To determine the yield of the exchange reaction, an ELISA was performed based on the detection of the light chain (β2m) of stabilized MHC complexes. The assay was performed as generally described in Rodenko et al. (Rodenko et al., 2006).\n96 well MAXISorp plates (NUNC) were coated over night with 2 ug/ml streptavidin in PBS at room temperature, washed 4× and blocked for 1 h at 37° C. in 2% BSA containing blocking buffer. Refolded HLA-A*02:01/MLA-001 monomers served as standards, covering the range of 15-500 ng/ml. Peptide-MHC monomers of the UV-exchange reaction were diluted 100 fold in blocking buffer. Samples were incubated for 1 h at 37° C., washed four times, incubated with 2 ug/ml HRP conjugated anti-μ2m for 1h at 37° C., washed again and detected with TMB solution that is stopped with […]. Absorption was measured at 450 nm. Candidate peptides that show a high exchange yield (preferably higher than 50%, most preferred higher than 75%) are generally preferred for a generation and production of antibodies or fragments thereof, and/or T cell receptors or fragments thereof, as they show sufficient avidity to the MHC molecules and prevent dissociation of the MHC complexes.\nMHC class I binding scores. Binding of HLA-class I restricted peptides to HLA-A*02:01 was ranged by peptide exchange yield: ≥10%=+; ≥20%=++; ≥50=+++; >75%=++++", "values": [
      {"substance": "61 (SMYDGLLQA; listed as Homo sapiens) [compound 61]", "Peptide exchange (MHC class I binding score)": "“++” (≥20%=++)"},
      {"substance": "119 (VLGDDPQLMKV; listed as Homo sapiens) [compound 119]", "Peptide exchange (MHC class I binding score)": "“+++” (≥50=+++)"},
      {"substance": "128 (ALYDVRTILL; listed as Homo sapiens) [compound 128]", "Peptide exchange (MHC class I binding score)": "“+++” (≥50=+++)"},
      {"substance": "155 (LLLDPDTAVLKL; listed as Homo sapiens) [compound 155]", "Peptide exchange (MHC class I binding score)": "“+++” (≥50=+++)"},
      {"substance": "152 (ALLEPEFILKA; listed as Homo sapiens) [compound 152]", "Peptide exchange (MHC class I binding score)": "“++++” (>75%=++++)"},
      {"substance": "70 (VLGVIWGV; listed as Homo sapiens) [compound 70]", "Peptide exchange (MHC class I binding score)": "“++++” (>75%=++++)"},
      {"substance": "64 (TLFSEPKFAQV; listed as Homo sapiens) [compound 64]", "Peptide exchange (MHC class I binding score)": "“++++” (>75%=++++)"},
      {"substance": "28 (VLDEFYSSL; listed as Homo sapiens) [compound 28]", "Peptide exchange (MHC class I binding score)": "“+++” (≥50=+++)"},
      {"substance": "14 (FIIDNPQDLKV; listed as Homo sapiens) [compound 14]", "Peptide exchange (MHC class I binding score)": "“+++” (≥50=+++)"},
      {"substance": "135 (KLDDTYIKA; listed as Homo sapiens) [compound 135]", "Peptide exchange (MHC class I binding score)": "“+++” (≥50=+++)"},
      {"substance": "26 (SLYTALTEA; listed as Homo sapiens) [compound 26]", "Peptide exchange (MHC class I binding score)": "“+++” (≥50=+++)"},
      {"substance": "3 (ILIGETIKI; listed as Homo sapiens) [compound 3]", "Peptide exchange (MHC class I binding score)": "“+++” (≥50=+++)"},
      {"substance": "150 (ALFQPHLINV; listed as Homo sapiens) [compound 150]", "Peptide exchange (MHC class I binding score)": "“++++” (>75%=++++)"},
      {"substance": "47 (LIYKDLVSV; listed as Homo sapiens) [compound 47]", "Peptide exchange (MHC class I binding score)": "“+++” (≥50=+++)"},
      {"substance": "94 (VMMEEFVQL; listed as Homo sapiens) [compound 94]", "Peptide exchange (MHC class I binding score)": "“+++” (≥50=+++)"},
      {"substance": "88 (IIDDTIFNL; listed as Homo sapiens) [compound 88]", "Peptide exchange (MHC class I binding score)": "“+++” (≥50=+++)"},
      {"substance": "68 (VLFDVTGQV; listed as Homo sapiens) [compound 68]", "Peptide exchange (MHC class I binding score)": "“+++” (≥50=+++)"},
      {"substance": "42 (ILSDMRSQYEV; listed as Homo sapiens) [compound 42]", "Peptide exchange (MHC class I binding score)": "“+++” (≥50=+++)"},
      {"substance": "20 (GLIDIENPNRV; listed as Homo sapiens) [compound 20]", "Peptide exchange (MHC class I binding score)": "“+++” (≥50=+++)"},
      {"substance": "132 (FLWAGGRASYGV; listed as Homo sapiens) [compound 132]", "Peptide exchange (MHC class I binding score)": "“+++” (≥50=+++)"},
      {"substance": "96 (ALAPATGGGSLLL; listed as Homo sapiens) [compound 96]", "Peptide exchange (MHC class I binding score)": "“+++” (≥50=+++)"},
      {"substance": "113 (LMMSEDRISL; listed as Homo sapiens) [compound 113]", "Peptide exchange (MHC class I binding score)": "“+++” (≥50=+++)"},
      {"substance": "79 (VVYEGQLISI; listed as Homo sapiens) [compound 79]", "Peptide exchange (MHC class I binding score)": "“+++” (≥50=+++)"},
      {"substance": "57 (RLSELGITQA; listed as Homo sapiens) [compound 57]", "Peptide exchange (MHC class I binding score)": "“+++” (≥50=+++)"},
      {"substance": "65 (TLNEKLTAL; listed as Homo sapiens) [compound 65]", "Peptide exchange (MHC class I binding score)": "“+++” (≥50=+++)"},
      {"substance": "153 (ALPKEDPTAV; listed as Homo sapiens) [compound 153]", "Peptide exchange (MHC class I binding score)": "“+++” (≥50=+++)"},
      {"substance": "137 (KLGPEGELL; listed as Homo sapiens) [compound 137]", "Peptide exchange (MHC class I binding score)": "“+++” (≥50=+++)"},
      {"substance": "115 (SLMDPNKFLLL; listed as Homo sapiens) [compound 115]", "Peptide exchange (MHC class I binding score)": "“+++” (≥50=+++)"},
      {"substance": "56 (NLIGVTAEL; listed as Homo sapiens) [compound 56]", "Peptide exchange (MHC class I binding score)": "“++” (≥20%=++)"},
      {"substance": "117 (SVDGVIKEV; listed as Homo sapiens) [compound 117]", "Peptide exchange (MHC class I binding score)": "“+++” (≥50=+++)"},
      {"substance": "16 (GLIDYDTGI; listed as Homo sapiens) [compound 16]", "Peptide exchange (MHC class I binding score)": "“+++” (≥50=+++)"},
      {"substance": "95 (ALADDDFLTV; listed as Homo sapiens) [compound 95]", "Peptide exchange (MHC class I binding score)": "“+++” (≥50=+++)"},
      {"substance": "160 (VLLPDERTISL; listed as Homo sapiens) [compound 160]", "Peptide exchange (MHC class I binding score)": "“++++” (>75%=++++)"},
      {"substance": "46 (TMVEHNYYV; listed as Homo sapiens) [compound 46]", "Peptide exchange (MHC class I binding score)": "“+++” (≥50=+++)"},
      {"substance": "35 (FLFPSQYVDV; listed as Homo sapiens) [compound 35]", "Peptide exchange (MHC class I binding score)": "“+++” (≥50=+++)"},
      {"substance": "31 (YLDSMYIML; listed as Homo sapiens) [compound 31]", "Peptide exchange (MHC class I binding score)": "“+++” (≥50=+++)"},
      {"substance": "101 (ALVEENGIFEL; listed as Homo sapiens) [compound 101]", "Peptide exchange (MHC class I binding score)": "“+++” (≥50=+++)"},
      {"substance": "91 (LLFNDVQTL; listed as Homo sapiens) [compound 91]", "Peptide exchange (MHC class I binding score)": "“+++” (≥50=+++)"},
      {"substance": "85 (FLSDGTIISV; listed as Homo sapiens) [compound 85]", "Peptide exchange (MHC class I binding score)": "“++++” (>75%=++++)"},
      {"substance": "34 (FLEDDDIAAV; listed as Homo sapiens) [compound 34]", "Peptide exchange (MHC class I binding score)": "“++” (≥20%=++)"},
      {"substance": "32 (YVDDGLISL; listed as Homo sapiens) [compound 32]", "Peptide exchange (MHC class I binding score)": "“++” (≥20%=++)"},
      {"substance": "67 (VIWGTDVNV; listed as Homo sapiens) [compound 67]", "Peptide exchange (MHC class I binding score)": "“++++” (>75%=++++)"},
      {"substance": "80 (LLPGTEYVVSV; listed as Homo sapiens) [compound 80]", "Peptide exchange (MHC class I binding score)": "“+++” (≥50=+++)"},
      {"substance": "53 (LLWDPSTGKQV; listed as Homo sapiens) [compound 53]", "Peptide exchange (MHC class I binding score)": "“+++” (≥50=+++)"},
      {"substance": "109 (ILASVILNV; listed as Homo sapiens) [compound 109]", "Peptide exchange (MHC class I binding score)": "“++++” (>75%=++++)"},
      {"substance": "141 (SLTEQVHSL; listed as Homo sapiens) [compound 141]", "Peptide exchange (MHC class I binding score)": "“+++” (≥50=+++)"},
      {"substance": "30 (YIYKDTIQV; listed as Homo sapiens) [compound 30]", "Peptide exchange (MHC class I binding score)": "“++” (≥20%=++)"},
      {"substance": "134 (ILLAEGRLVNL; listed as Homo sapiens) [compound 134]", "Peptide exchange (MHC class I binding score)": "“+++” (≥50=+++)"},
      {"substance": "37 (FLNPDEVHAI; listed as Homo sapiens) [compound 37]", "Peptide exchange (MHC class I binding score)": "“++” (≥20%=++)"},
      {"substance": "9 (QIIDAINKV; listed as Homo sapiens) [compound 9]", "Peptide exchange (MHC class I binding score)": "“++” (≥20%=++)"},
      {"substance": "24 (KLSENAGIQSL; listed as Homo sapiens) [compound 24]", "Peptide exchange (MHC class I binding score)": "“++” (≥20%=++)"},
      {"substance": "146 (VLISGVVHEI; listed as Homo sapiens) [compound 146]", "Peptide exchange (MHC class I binding score)": "“+++” (≥50=+++)"},
      {"substance": "90 (KLLTPITTL; listed as Homo sapiens) [compound 90]", "Peptide exchange (MHC class I binding score)": "“+++” (≥50=+++)"},
      {"substance": "83 (ALSKEIYVI; listed as Homo sapiens) [compound 83]", "Peptide exchange (MHC class I binding score)": "“+++” (≥50=+++)"},
      {"substance": "62 (SVFPGARLL; listed as Homo sapiens) [compound 62]", "Peptide exchange (MHC class I binding score)": "“+” (≥10%=+)"},
      {"substance": "154 (KVADLVLML; listed as Homo sapiens) [compound 154]", "Peptide exchange (MHC class I binding score)": "“+++” (≥50=+++)"},
      {"substance": "140 (SLLNPPETLNL; listed as Homo sapiens) [compound 140]", "Peptide exchange (MHC class I binding score)": "“+++” (≥50=+++)"},
      {"substance": "44 (ILAQVGFSV; listed as Homo sapiens) [compound 44]", "Peptide exchange (MHC class I binding score)": "“+++” (≥50=+++)"},
      {"substance": "97 (ALDDMISTL; listed as Homo sapiens) [compound 97]", "Peptide exchange (MHC class I binding score)": "“+++” (≥50=+++)"},
      {"substance": "63 (SVTGIIVGV; listed as Homo sapiens) [compound 63]", "Peptide exchange (MHC class I binding score)": "“++++” (>75%=++++)"},
      {"substance": "129 (ALYEKDNTYL; listed as Homo sapiens) [compound 129]", "Peptide exchange (MHC class I binding score)": "“+++” (≥50=+++)"},
      {"substance": "99 (ALESFLKQV; listed as Homo sapiens) [compound 99]", "Peptide exchange (MHC class I binding score)": "“+++” (≥50=+++)"},
      {"substance": "2 (FGYDGDFYRA; listed as Homo sapiens) [compound 2]", "Peptide exchange (MHC class I binding score)": "“+++” (≥50=+++)"},
      {"substance": "23 (KLDSSGGAVQL; listed as Homo sapiens) [compound 23]", "Peptide exchange (MHC class I binding score)": "“++” (≥20%=++)"},
      {"substance": "106 (FVWSGTAEA; listed as Homo sapiens) [compound 106]", "Peptide exchange (MHC class I binding score)": "“+++” (≥50=+++)"},
      {"substance": "124 (ALFEESGLIRI; listed as Homo sapiens) [compound 124]", "Peptide exchange (MHC class I binding score)": "“+++” (≥50=+++)"}
    ]}
  ]
}
